Experimental data from patent US5817785, “Methods of producing nucleic acid ligands” (NeXstar Pharmaceuticals, Inc.).

What was measured:
[1] = target: T1, HIV-1 reverse transcriptase (HIV-RT) (HIV-1, UniProt P04585;P04585 P04585:588-1147,P04585:588-1027); test: filter; little difference in affinity
Experimental: (§1) Affinity assays with labeled RNA and HIV-RT. Model RNAs for refinement of the 5' and 3' boundaries and for determination of the effect of substitutions were labeled during transcription with T7 RNA polymerase as described in Tuerk et al. (1990) except that a-^32P-ATP was used, in reactions of 0.5 mM C,G, and UTP with 0.05 mM ATP. Synthetic oligonucleotides and phosphatased transcripts (as in Tuerk et al., 1990) were kinased as described in Gauss et al. (1987). All RNA-protein binding reactions were done in a "binding buffer" of 200 mM KOAc, 50 mM Tris-HCl pH 7.7, 10 mM dithiothreitol with exceptions noted for chemical protection experiments below. RNA and protein dilutions were mixed and stored on ice for 30 minutes then transferred to 37° C. for 5 minutes. In binding assays the reaction volume was 60 μl of which 50 μl was assayed. Each reaction was suctioned through a pre-wet (with binding buffer) nitrocellulose filter and rinsed with 3 mls of binding buffer after which it was dried and counted for assays or subjected to elution and assayed for chemical modification. In comparisons of binding affinity, results were plotted and the protein concentration at which half-maximal binding occurred (the approximate Kd in conditions of protein excess) was determined graphically.

[2] = target: T1, HIV-1 reverse transcriptase (HIV-RT); test: filter; binds with high affinity
Experimental: as §1

[3] = target: T1, HIV-1 reverse transcriptase (HIV-RT); test: filter
Experimental: as §1

[4] = target: T1, HIV-1 reverse transcriptase (HIV-RT); test: filter; specific binding abolished
Experimental: as §1

[5] = target: T1, HIV-1 reverse transcriptase (HIV-RT); test: filter; affinity unchanged versus transcripts with two extra 5' Gs
Experimental: as §1

[6] = target: T1, HIV-1 reverse transcriptase (HIV-RT); test: filter; section II states 5-fold decrease on removal of both Us
Experimental: as §1

[7] = target: T1, HIV-1 reverse transcriptase (HIV-RT); test: filter; no 3' helix
Experimental: as §1

[8] = target: T1, HIV-1 reverse transcriptase (HIV-RT); test: filter; no difference in affinity
Experimental: as §1

[9] = target: T1, HIV-1 reverse transcriptase (HIV-RT); test: filter; no effect on binding
Experimental: as §1

[10] = target: T1, HIV-1 reverse transcriptase (HIV-RT); test: filter; binding reduced to that of non-specific sequences
Experimental: as §1

Q: Does GGACCGAAGUGCAACGGGAAAAUGCACU (ssRNA) [ligand B U1A] bind [1]?
A: Result: binds

Q: Does UCCGAAGUGCAACGGGAAAAUGCACU (ssRNA, 2'-OMe at the 12 riboses of Stem 2 (A6-A11, U21-U26)) [ligand B with 2'-methoxy Stem 2 (FIG. 7 C)] bind [2]?
A: Result: binds

Q: How did the binding signal [3] turn out when GGUCCAAAGUGCAAUGGGAAAAUGCACU (ssRNA) [ligand B G4-C13 to A-U] was run?
A: The binding signal was roughly 20 fold lower affinity.

Q: Which binding signal [4] does the source give for GGUCCAAAGUGCAACGGGAAAAUGCACU (ssRNA) [ligand B G4-C13 to A-C] here?
A: Its binding signal is no less than 100 fold lower affinity.

Q: Does UCCGAAGUGCAACGGGAAAAUGCACU (ssRNA) [synthetic ligand B with 5'-terminal U1] bind [5]?
A: Result: binds

Q: Which binding signal [6] does the source give for GGCCGAAGUGCAACGGGAAAAUGCACU (ssRNA, [none]) [HIV-RT ligand C of FIG. 2 (no 5' U)] here?
A: Its binding signal is roughly 20 fold lower affinity.

Q: Which binding signal [7] does the source give for GGUCCGAAGUGCAACGGGAAAA (ssRNA) [ligand B 3' truncation U21-U26 (no Stem 2)] here?
A: Its binding signal is roughly 70 fold lower affinity.

Q: Which binding signal [3] does the source give for GGUCGGAAGUGCAACCGGAAAAUGCACU (ssRNA) [ligand B C3-G14 to G-C] here?
A: The binding signal was roughly 10 fold lower affinity.

Q: Does GGUGCGAAGUGCAACGCGAAAAUGCACU (ssRNA) [ligand B C2-G15 to G-C] bind [3]?
A: Result: no binding

Q: How did the binding signal [8] turn out when GGUCCGAAGUGCAACGGGAAAAUGC (ssRNA) [ligand B 3' truncation A24-U26] was run?
A: The binding signal was 1 fold vs ligand B.

Q: GGUCCGAAGUGCAACGGGAAAAU (ssRNA) [ligand B 3' truncation G22-U26] was tested. Which binding signal [3] did it give?
A: Its binding signal is roughly 12 fold lower affinity.

Q: GGUCCCAAGUGCAAGGGGAAAAUGCACU (ssRNA) [ligand B G4-C13 to C-G] was tested. Which binding signal [9] did it give?
A: The binding signal was 1 fold vs ligand B.

Q: GGCCCGAAGUGCAACGGGAAAAUGCACU (ssRNA) [ligand B U1C] was tested. Which binding signal [3] did it give?
A: The binding signal was roughly 20 fold lower affinity.

Q: Does GGUCCGAAGUGCAACGGAAAAAUGCACU (ssRNA) [ligand B G16A] bind [4]?
A: Result: no binding

Q: For GGUCCGAAGUGCAACGGGAAAAUG (ssRNA) [ligand B 3' truncation C23-U26], which binding signal [3] is on record?
A: Its binding signal is 7 fold lower affinity.

Q: Does GGCGAAGUGCAACGGGAAAAUGCACU (ssRNA) [HIV-RT ligand D of FIG. 2 (5' U and next C removed)] bind [10]?
A: Result: no binding
